To fix the notation:
B1: NLV2 TCR alpha chain (CDR3α only) (parent)
chain: AGPMKTSYDKVI
partner: NLVGMVATV
B2: NLV2 TCR alpha chain (CDR3α only) (parent)
chain: AGPMKTSYDKVI
partner: MLVPMVATV

The variants in one assay derive from B1. Put plainly: T-Switch: Jurkat TCRβ−/− cells expressing a CDR3 saturation-mutagenesis library, stained with two peptide-HLA-A*02:01 tetramers (original and novel peptide) plus anti-CD3, FACS-sorted into four gates, gDNA sequenced. The note with it: with HLA-A*02:01 with peptide … (NLV 2-2, the original bait), tetramers 1 µg/mL, 30 min on ice, DP and SW gates expanded about 10 days between rounds ('two to three rounds of selection' in the Methods), gate SP: higher = more of the variant in the gate that binds the original peptide and not the novel one = retained original binding. Fold enrichment of the CDR3 variant in one FACS gate of a two-tetra, unresolved parent, parent is a CDR3 fragment, scale: fold enrichment, numbering: sequential-on-construct, sequence ….
In the case of […] (CDR3 as printed); V11K derived by comparing it with the table's wild-type CDR3 AGPMKTSYDKVI, the enrichment was 0.
Still for that read-out and setting: the same measure for […] (CDR3 as printed); Y8H derived by comparing it with the table's wild-type CDR3 AGPMKTSYDKVI: 0.
Still for that read-out and setting: for […] (CDR3 as printed); V11I derived by comparing it with the table's wild-type CDR3 AGPMKTSYDKVI the value was 5; for […] (CDR3 as printed); V11C derived by comparing it with the table's wild-type CDR3 AGPMKTSYDKVI, 0.
With […] (CDR3 as printed); V11L derived by comparing it with the table's wild-type CDR3 AGPMKTSYDKVI, the enrichment amounted to 0.
Same read-out and setting: the same measure for […] (CDR3 as printed); V11W derived by comparing it with the table's wild-type CDR3 AGPMKTSYDKVI: 0.
On the same count and under the same terms, for […] (CDR3 as printed); T6Q derived by comparing it with the table's wild-type CDR3 AGPMKTSYDKVI the value was 0; for […] (CDR3 as printed); T6Y derived by comparing it with the table's wild-type CDR3 AGPMKTSYDKVI, 0; for […] (CDR3 as printed); Y8D derived by comparing it with the table's wild-type CDR3 AGPMKTSYDKVI, 0.
As to […] (CDR3 as printed); V11E derived by comparing it with the table's wild-type CDR3 AGPMKTSYDKVI, the enrichment is 0.
Still for that read-out and setting: for […] (CDR3 as printed); V11A derived by comparing it with the table's wild-type CDR3 AGPMKTSYDKVI the value was 1.13.
On the same count and under the same terms, for […] (CDR3 as printed); V11F derived by comparing it with the table's wild-type CDR3 AGPMKTSYDKVI the value was 0; for […] (CDR3 as printed); Y8A derived by comparing it with the table's wild-type CDR3 AGPMKTSYDKVI, 0.
Same read-out and setting: the same measure for […] (CDR3 as printed); Y8S derived by comparing it with the table's wild-type CDR3 AGPMKTSYDKVI: 0; for […] (CDR3 as printed); Y8G derived by comparing it with the table's wild-type CDR3 AGPMKTSYDKVI: 0.
[…] (CDR3 as printed); V11P derived by comparing it with the table's wild-type CDR3 AGPMKTSYDKVI: the enrichment worked out at 0.
[…] (CDR3 as printed); T6L derived by comparing it with the table's wild-type CDR3 AGPMKTSYDKVI: the enrichment was 0.
On the same count and under the same terms, for […] (CDR3 as printed); T6P derived by comparing it with the table's wild-type CDR3 AGPMKTSYDKVI the value was 9.39; for […] (CDR3 as printed); Y8Q derived by comparing it with the table's wild-type CDR3 AGPMKTSYDKVI, 0; for […] (CDR3 as printed); V11G derived by comparing it with the table's wild-type CDR3 AGPMKTSYDKVI, 0.
In the case of […] (CDR3 as printed); Y8R derived by comparing it with the table's wild-type CDR3 AGPMKTSYDKVI, the enrichment was 0.
On the same count and under the same terms, the same measure for […] (CDR3 as printed); Y8W derived by comparing it with the table's wild-type CDR3 AGPMKTSYDKVI: 0.
Take […] (CDR3 as printed); V11D derived by comparing it with the table's wild-type CDR3 AGPMKTSYDKVI: the enrichment was 0.11.
Same read-out and setting: the same measure for […] (CDR3 as printed); Y8C derived by comparing it with the table's wild-type CDR3 AGPMKTSYDKVI: 0.
As for […] (CDR3 as printed); V11Q derived by comparing it with the table's wild-type CDR3 AGPMKTSYDKVI, the enrichment came to 0.
For […] (CDR3 as printed); Y8L derived by comparing it with the table's wild-type CDR3 AGPMKTSYDKVI, the enrichment is 0.
Still for that read-out and setting: for […] (CDR3 as printed); V11H derived by comparing it with the table's wild-type CDR3 AGPMKTSYDKVI the value was 0.
Consider […] (CDR3 as printed); Y8N derived by comparing it with the table's wild-type CDR3 AGPMKTSYDKVI, for which the enrichment was 0.
In the case of […] (CDR3 as printed); V11T derived by comparing it with the table's wild-type CDR3 AGPMKTSYDKVI, the enrichment stood at 0.
On the same count and under the same terms, for […] (CDR3 as printed); Y8V derived by comparing it with the table's wild-type CDR3 AGPMKTSYDKVI the value was 0.
Still for that read-out and setting: the same measure for […] (CDR3 as printed); V11Y derived by comparing it with the table's wild-type CDR3 AGPMKTSYDKVI: 0.
Regarding […] (CDR3 as printed); V11N derived by comparing it with the table's wild-type CDR3 AGPMKTSYDKVI, the enrichment stood at 0.
The same measure, in the same setting: for […] (CDR3 as printed); T6M derived by comparing it with the table's wild-type CDR3 AGPMKTSYDKVI the value was 0; for […] (CDR3 as printed); T6S derived by comparing it with the table's wild-type CDR3 AGPMKTSYDKVI, 0.
As to […] (CDR3 as printed); T6N derived by comparing it with the table's wild-type CDR3 AGPMKTSYDKVI, the enrichment is 0.
Consider […] (CDR3 as printed); Y8F derived by comparing it with the table's wild-type CDR3 AGPMKTSYDKVI, for which the enrichment was determined as 0.
Consider […] (CDR3 as printed); T6W derived by comparing it with the table's wild-type CDR3 AGPMKTSYDKVI, for which the enrichment amounted to 0.
Take […] (CDR3 as printed); V11R derived by comparing it with the table's wild-type CDR3 AGPMKTSYDKVI: the enrichment worked out at 0.
Still for that read-out and setting: the same measure for […] (CDR3 as printed); T6R derived by comparing it with the table's wild-type CDR3 AGPMKTSYDKVI: 0.
The same measure, in the same setting: the same measure for […] (CDR3 as printed); Y8I derived by comparing it with the table's wild-type CDR3 AGPMKTSYDKVI: 0.
Turning to […] (CDR3 as printed); V11M derived by comparing it with the table's wild-type CDR3 AGPMKTSYDKVI, the enrichment was found to be 0.
Consider […] (CDR3 as printed); Y8P derived by comparing it with the table's wild-type CDR3 AGPMKTSYDKVI, for which the enrichment amounted to 0.
Turning to […] (CDR3 as printed); Y8T derived by comparing it with the table's wild-type CDR3 AGPMKTSYDKVI, the enrichment came to 0.942.
The same measure, in the same setting: the same measure for […] (CDR3 as printed); V11S derived by comparing it with the table's wild-type CDR3 AGPMKTSYDKVI: 1.91.
Still for that read-out and setting: for […] (CDR3 as printed); T6V derived by comparing it with the table's wild-type CDR3 AGPMKTSYDKVI the value was 22.1.
The same measure, in the same setting: the same measure for […] (CDR3 as printed); Y8K derived by comparing it with the table's wild-type CDR3 AGPMKTSYDKVI: 0.
Turning to […] (CDR3 as printed); Y8M derived by comparing it with the table's wild-type CDR3 AGPMKTSYDKVI, the enrichment was determined as 0.
On the same count and under the same terms, the same measure for […] (CDR3 as printed); Y8E derived by comparing it with the table's wild-type CDR3 AGPMKTSYDKVI: 0.105.

In the next assay the parent is B2. The description is as above. The note with it: with HLA-A*02:01 with peptide … (NLV 3-1, the novel peptide), tetramers 1 µg/mL, 30 min on ice, SP, DP and SW gates expanded about 10 days between rounds ('two to three rounds of selection' in the Methods), gate SW: higher = more of the variant in the gate that binds the novel peptide and not the original one = switched binding. Fold enrichment of the CDR3 variant in one FACS gate of a two-tetramer stain, unresolved parent, parent is a CDR3 fragment, scale: fold enrichment, numbering: sequential-on-construct, sequence starts at 1.
With […] (CDR3 as printed); I12L derived by comparing it with the table's wild-type CDR3 AGPMKTSYDKVI, the enrichment worked out at 0.
The same measure, in the same setting: for […] (CDR3 as printed); D9A derived by comparing it with the table's wild-type CDR3 AGPMKTSYDKVI the value was 0; for […] (CDR3 as printed); D9S derived by comparing it with the table's wild-type CDR3 AGPMKTSYDKVI, 0; for […] (CDR3 as printed); A1H derived by comparing it with the table's wild-type CDR3 AGPMKTSYDKVI, 0.
On the same count and under the same terms, for […] (CDR3 as printed); A1K derived by comparing it with the table's wild-type CDR3 AGPMKTSYDKVI the value was 1.01; for […] (CDR3 as printed); D9L derived by comparing it with the table's wild-type CDR3 AGPMKTSYDKVI, 0.
For the variant […] (CDR3 as printed); D9I derived by comparing it with the table's wild-type CDR3 AGPMKTSYDKVI, the enrichment was 0.
Turning to […] (CDR3 as printed); M4D derived by comparing it with the table's wild-type CDR3 AGPMKTSYDKVI, the enrichment was found to be 0.
Still for that read-out and setting: the same measure for […] (CDR3 as printed); K10Y derived by comparing it with the table's wild-type CDR3 AGPMKTSYDKVI: 0; for […] (CDR3 as printed); I12M derived by comparing it with the table's wild-type CDR3 AGPMKTSYDKVI: 0.
Same read-out and setting: the same measure for […] (CDR3 as printed); A1Q derived by comparing it with the table's wild-type CDR3 AGPMKTSYDKVI: 0; for […] (CDR3 as printed); D9R derived by comparing it with the table's wild-type CDR3 AGPMKTSYDKVI: 0.
Turning to […] (CDR3 as printed); K5I derived by comparing it with the table's wild-type CDR3 AGPMKTSYDKVI, the enrichment is 0.
The same measure, in the same setting: the same measure for […] (CDR3 as printed); I12Y derived by comparing it with the table's wild-type CDR3 AGPMKTSYDKVI: 0.
For […] (CDR3 as printed); G2Q derived by comparing it with the table's wild-type CDR3 AGPMKTSYDKVI, the enrichment turned out to be 0.
Same read-out and setting: for […] (CDR3 as printed); K5P derived by comparing it with the table's wild-type CDR3 AGPMKTSYDKVI the value was 0; for […] (CDR3 as printed); I12P derived by comparing it with the table's wild-type CDR3 AGPMKTSYDKVI, 0.
With […] (CDR3 as printed); K5R derived by comparing it with the table's wild-type CDR3 AGPMKTSYDKVI, the enrichment came out at 0.
The same measure, in the same setting: the same measure for […] (CDR3 as printed); I12R derived by comparing it with the table's wild-type CDR3 AGPMKTSYDKVI: 0; for […] (CDR3 as printed); G2K derived by comparing it with the table's wild-type CDR3 AGPMKTSYDKVI: 0.
Same read-out and setting: the same measure for […] (CDR3 as printed); I12N derived by comparing it with the table's wild-type CDR3 AGPMKTSYDKVI: 0.
Take […] (CDR3 as printed); D9P derived by comparing it with the table's wild-type CDR3 AGPMKTSYDKVI: the enrichment amounted to 0.
As for […] (CDR3 as printed); A1I derived by comparing it with the table's wild-type CDR3 AGPMKTSYDKVI, the enrichment is 0.
Regarding […] (CDR3 as printed); G2N derived by comparing it with the table's wild-type CDR3 AGPMKTSYDKVI, the enrichment worked out at 0.
Consider […] (CDR3 as printed); A1P derived by comparing it with the table's wild-type CDR3 AGPMKTSYDKVI, for which the enrichment amounted to 0.
On to […] (CDR3 as printed); K5N derived by comparing it with the table's wild-type CDR3 AGPMKTSYDKVI, for which the enrichment turned out to be 0.
As to […] (CDR3 as printed); K10N derived by comparing it with the table's wild-type CDR3 AGPMKTSYDKVI, the enrichment turned out to be 0.
Still for that read-out and setting: the same measure for […] (CDR3 as printed); I12A derived by comparing it with the table's wild-type CDR3 AGPMKTSYDKVI: 0; for […] (CDR3 as printed); A1M derived by comparing it with the table's wild-type CDR3 AGPMKTSYDKVI: 0; for […] (CDR3 as printed); I12C derived by comparing it with the table's wild-type CDR3 AGPMKTSYDKVI: 0.
On to […] (CDR3 as printed); D9Q derived by comparing it with the table's wild-type CDR3 AGPMKTSYDKVI, for which the enrichment was found to be 0.
Turning to […] (CDR3 as printed); I12Q derived by comparing it with the table's wild-type CDR3 AGPMKTSYDKVI, the enrichment is 0.
For the variant […] (CDR3 as printed); D9E derived by comparing it with the table's wild-type CDR3 AGPMKTSYDKVI, the enrichment was 0.
As for […] (CDR3 as printed); A1T derived by comparing it with the table's wild-type CDR3 AGPMKTSYDKVI, the enrichment was 0.
[…] (CDR3 as printed); I12T derived by comparing it with the table's wild-type CDR3 AGPMKTSYDKVI: the enrichment is 0.

The values above are taken from paper PMC13397619.
